We go through two molecules from patent publication US10266842B2 (priority 2013, dated 2019).

The test system of this assay is Fusarium graminearum (Strain IFA 65). It counts as cell-based.

B1: LserFCP1-77: 77-residue polypeptide of SEQ ID No. 1 (Lucilia sericata), prepared by solid-phase synthesis or recombinantly in E. coli (protein, listed as Lucilia sericata)
chain: QHGYGAGGHGQQGYGSQHSSHAPQGGHVVREQGFSGHVHEQQAGHHHEAGHHEQAGHHEQSGQQVHGQGHGYKSHGY
Turning to B1, for the setting “Fusarium graminearum spores, 24 h at room temperature, from dose-effect relationship (FIG. 8), read-out: concentration in which a half-maximum inhibition (of spore germination) occurred”, the IC50 turned out to be 1600 nM.

B2: LserFCP1-73: 73-residue polypeptide of SEQ ID No. 2; LserFCP1-77 lacking the last four residues, made recombinantly in E. coli (protein, listed as Lucilia sericata)
chain: QHGYGAGGHGQQGYGSQHSSHAPQGGHVVREQGFSGHVHEQQAGHHHEAGHHEQAGHHEQSGQQVHGQGHGYK
For B2, the “inhibition of spore germination” value (100 μM, compared to a water control (FIG. 9)) was “complete inhibition”.
